Consider 5 sequences from the supplement of paper PMC5998384.

In series [1] the test system is HeLa Kyoto. As to the kind of experiment: solubility change mitosis vs G1/S (difference of NP-40 vs SDS log2 ratios) (log2 ratio difference); higher = more soluble in mitosis.
For series [2], the system named is HeLa Kyoto. The experiment in a line: melting temperature (median over replicates), in situ; higher = more thermally stable.
Series [3] relates to HeLa Kyoto. As to the kind of experiment: solubility in G1/S (NP-40 vs SDS abundance) (log2 ratio); higher = more soluble. Conditions: cell cycle stage: G1/S.
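Throughout, for melting temperature (median over replicates), in situ: HeLa Kyoto cells synchronized by double thymidine or nocodazole block, proteins quantified by TMT10plex mass spectrometry, three independent biological replicates.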
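Throughout, for solubility change mitosis vs G1/S (difference of NP-40 vs SDS log2 ratios): synchronized HeLa Kyoto cells (double thymidine block for G1/S, nocodazole release for mitosis), protein amounts in NP-40 versus SDS lysates quantified by mass spectrometry, three biological replicates.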
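Throughout, for solubility in G1/S (NP-40 vs SDS abundance): HeLa Kyoto cells arrested at G1/S by double thymidine block, proteins quantified by TMT10plex mass spectrometry in mild NP-40 versus SDS extracts, three biological replicates.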

On to “MSSKKAKTKTTKKRPQRATSNVFAMFDQSQIQEFKEAFNMIDQNRDGFIDKEDLHDMLASLGKNPTDAYLDAMMNEAPGPINFTMFLTMFGEKLNGTDPEDVIRNAFACFDEEATGTIQEDYLRELLTTMGDRFTDEEVDELYREAPIDKKGNFNYIEFTRILKHGAKDKDD [MYL12B]”, for which the “solubility change mitosis (log2)” value in series [1] is 0.538. Further, the melting temperature amounted to 54 °C in series [2] (cell cycle stage: G1/S) and 52.7 °C in series [2] (cell cycle stage: mitosis). For the same sequence, the “solubility in G1/S (log2)” value in series [3] is 0.24.

For “MSSPMPDCTSKCRSLKHALDVLSVVTKGSENQIKAFLSSHCYNAATIKDVFGRNALHLVSSCGKKGVLDWLIQKGVDLLVKDKESGWTALHRSIFYGHIDCVWSLLKHGVSLYIQDKEGLSALDLVMKDRPTHVVFKNTDPTDVYTWGDNTNFTLGHGSQNSKHHPELVDLFSRSGIYIKQVVLCKFHSVFLSQKGQVYTCGHGPGGRLGHGDEQTCLVPRLVEGLNGHNCSQVAAAKDHTVVLTEDGCVYTFGLNIFHQLGIIPPPSSCNVPRQIQAKYLKGRTIIGVAAGRFHTVLWTREAVYTMGLNGGQLGCLLDPNGEKCVTAPRQVSALHHKDIALSLVAASDGATVCVTTRGDIYLLADYQCKKMASKQLNLKKVLVSGGHMEYKVDPEHLKENGGQKICILAMDGAGRVFCWRSVNSSLKQCRWAYPRQVFISDIALNRNEILFVTQDGEGFRGRWFEEKRKSSEKKEILSNLHNSSSDVSYVSDINSVYERIRLEKLTFAHRAVSVSTDPSGCNFAILQSDPKTSLYEIPAVSSSSFFEEFGKLLREADEMDSIHDVTFQVGNRLFPAHKYILAVHSDFFQKLFLSDGNTSEFTDIYQKDEDSAGCHLFVVEKVHPDMFEYLLQFIYTDTCDFLTHGFKPRIHLNKNPEEYQGTLNSHLNKVNFHEDDNQKSAFEVYKSNQAQTVSERQKSKPKSCKKGKNIREDDPVRMLQTVAKKFDFSNLSSRLDGVRFENEKINVIAKNTGNKLKLSQKKCSFLCDVTMKSVDGKEFPCHKCVLCARLEYFHSMLSSSWIEASSCAALEMPIHSDILKVILDYLYTDEAVVIKESQNVDFICSVLVVADQLLITRLKEICEVALTEKLTLKNAAMLLEFAAMYSAKQLKLSCLQFIGLNMAALLEARSLDVLSDGVLKDLSEFYRKMIPAMDRRVITPYQDGPDISYLEVEDGDIFLKEEINMEQNHSETMFKKAKTKAKKKPRKRSDSSGGYNLSDIIQSPSSTGLLKSGKTNSVESLPELLTSDSEGSYAGVGSPRDLQSPDFTTGFHSDKIEAKVKPYVNGTSPVYSREDLKPWEKSPILKISAPQPIPSNRIDTTSSASWVAGSFSPVSPPVVDLRTIMEIEESRQKCGATPKSHLGKTVSHGVKLSQKQRKMIALTTKENNSGMNSMETVLFTPSKAPKPVNAWASSLHSVSSKSFRDFLLEEKKSVTSHSSGDHVKKVSFKGIENSQAPKIVRCSTHGTPGPEGNHISDLPLLDSPNPWLSSSVTAPSMVAPVTFASIVEEELQQEAALIRSREKPLALIQIEEHAIQDLLVFYEAFGNPEEFVIVERTPQGPLAVPMWNKHGC [IBTK]”, the “solubility change mitosis (log2)” value in series [1] was 0.351. The melting temperature is 52.7 °C in series [2] (cell cycle stage: G1/S) and 50.8 °C in series [2] (cell cycle stage: mitosis). The “solubility in G1/S (log2)” value in series [3] was -0.61.

As for “MSSSSSSPRETYEEDREYESQAKRLKTEEGEIDYSAEEGENRREATPRGGGDGGGGGRSFSQPEAGGSHHKVSVSPVVHVRGLCESVVEADLVEALEKFGTICYVMMMPFKRQALVEFENIDSAKECVTFAADEPVYIAGQQAFFNYSTSKRITRPGNTDDPSGGNKVLLLSIQNPLYPITVDVLYTVCNPVGKVQRIVIFKRNGIQAMVEFESVLCAQKAKAALNGADIYAGCCTLKIEYARPTRLNVIRNDNDSWDYTKPYLGRRDRGKGRQRQAILGEHPSSFRHDGYGSHGPLLPLPSRYRMGSRDTPELVAYPLPQASSSYMHGGNPSGSVVMVSGLHQLKMNCSRVFNLFCLYGNIEKVKFMKTIPGTALVEMGDEYAVERAVTHLNNVKLFGKRLNVCVSKQHSVVPSQIFELEDGTSSYKDFAMSKNNRFTSAGQASKNIIQPPSCVLHYYNVPLCVTEETFTKLCNDHEVLTFIKYKVFDAKPSAKTLSGLLEWECKTDAVEALTALNHYQIRVPNGSNPYTLKLCFSTSSHL [HNRPLL]”, the “solubility change mitosis (log2)” value in series [1] is -0.0114. Moreover, the melting temperature in series [2] (cell cycle stage: G1/S) is 47.6 °C; in series [2] (cell cycle stage: mitosis), 49.7 °C. The “solubility in G1/S (log2)” value in series [3] is -0.0931.

On to “MSVAGLKKQFHKATQKVSEKVGGAEGTKLDDDFKEMERKVDVTSRAVMEIMTKTIEYLQPNPASRAKLSMINTMSKIRGQEKGPGYPQAEALLAEAMLKFGRELGDDCNFGPALGEVGEAMRELSEVKDSLDIEVKQNFIDPLQNLHDKDLREIQHHLKKLEGRRLDFDYKKKRQGKIPDEELRQALEKFDESKEIAESSMFNLLEMDIEQVSQLSALVQAQLEYHKQAVQILQQVTVRLEERIRQASSQPRREYQPKPRMSLEFPTGDSTQPNGGLSHTGTPKPSGVQMDQPCCRALYDFEPENEGELGFKEGDIITLTNQIDENWYEGMLHGHSGFFPINYVEILVALPH [SH3GL2]”, for which the “solubility change mitosis (log2)” value in series [1] was -0.159. For the same sequence, the melting temperature is 48.7 °C in series [2] (cell cycle stage: G1/S) and 49.2 °C in series [2] (cell cycle stage: mitosis). Besides, the “solubility in G1/S (log2)” value in series [3] is 0.586.

Take “MSVHYTLNLRVFWPLVTGLCTALVCLYHVLRGSGGARAEPADGVDGGFPLLKVAVLLLLSYVLLRCRHAVRQRFLPGSPRLEGHAAFSSRHFREPGLSILLESYYEHEVRLSPHVLGHSKAHVSRIVGELVRAGRARGSPGLIPGGALALAFRGDFIQVGSAYEQHKIRRPDSFDVLVPLRLPPLVALEPRSLGEEPALAPAFRGCFLCALKAPPSPSGASGGHWLRDCKPFADAFCVDVRGRRHLSATLVLRWFQSHLQRSLATVRYSLEGRCRVTLTPGGLEQPPTLHILPCRTDYGCCRLSMAVRLIPAVHLGDGVFLVAPPPPPLPSAPLLELPEGLRAEALWGVNTARQEQKLLSWLQERAAPGACYLKCLQLLKALRDLGARGLDSAAATQWGRILSSYVLKTVLLAVLLRKGAPGQGWDEEHLGRCLEELVQFLRDCLLRRHTLFHCVLGPGGAAAEVGPLPKALREAAPVDLLAAFDGHARELAAARLLSTWQRLPQLLRAYGGPRYLARCPPPRSQRTQGFLEGEP [ITPRIPL2]”: the “solubility change mitosis (log2)” value in series [1] was 0.00884. Besides, the melting temperature in series [2] (cell cycle stage: G1/S) turned out to be 53.8 °C; in series [2] (cell cycle stage: mitosis), 55.4 °C. Also, the “solubility in G1/S (log2)” value in series [3] was -0.164.
